pKd: −log10 of the molar value.

For one substance, Kd results are on record in article PMC4132745.

The subject of the data set is HMO1 (Saccharomyces cerevisiae). The data set can be described thus: optical tweezers (DNA stretching). To be noted: Assay buffer, salt, pH and temperature not given in the material (protein stored in 20 mM HEPES pH 7.5, 100 mM KCl, 1 mM EDTA, 1 mM DTT, 5% glycerol).

As to bacteriophage lambda DNA, the pKd reads like this: (from contour length, omega = 18 +/- 5, n = 26 bp) 8.72; (from overstretching force, omega = 80 +/- 15, n = 26 bp) 8.55; (from persistence length, omega = 20 +/- 7, n = 26 bp) 8.68.
